In the supplement of paper PMC10126150:
± gives the standard deviation of the averaged measurements.

Test system: ATP
Assay: switch fluorescence ratio, 500 uM ATP over buffer (Cy3 cluster intensity, sum of 5 cycles each) (fold (ratio)); higher = stronger signal-on switching upon ATP binding; sequences stand for … in TCGTCGGCAGCGTCAGATGTGTATAAGAGACAGTTTTTTTTTTTTTTTTTTTTTTTTT…TC
Conditions: aptamer strand: ATP DNA aptamer (quencher-CACCTGGGGGAGTATTGCGGAGGAAGG + anchor), 100 nM annealed; ATP concentration: 500 uM
Method in brief: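 Cy3-labelled switching-strand clusters on a modified Illumina MiSeq flow-cell were annealed to 100 nM quencher-labelled ATP aptamer and imaged first in selection buffer, then after 15 min with 500 uM ATP at 22 °C. NaOH stripping and re-annealing separated each of five buffer/ATP cycles, and clusters outside 100-1000 RFU were excluded. The fluorescence ratio sums target-cycle Cy3 intensity over buffer-cycle Cy3 intensity per cluster and averages it per switch-domain sequence.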
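Note: ATP exposure 15 min at 22 °C before imaging.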

TTCAATAGGA and TTCAATGGCA are within error of each other in switch fluorescence ratio: 1.03 ± 0.045 for the first, 1.0245 ± 0.00028 for the second.

TTCAATTTGG and TTCACAAGG are within error of each other in switch fluorescence ratio: 1.01 ± 0.021 for the first, 1.0218 ± 0.00034 for the second.

TTCACGGCCC and TTCACGGGAT are within error of each other in switch fluorescence ratio: 1.04 ± 0.013 for the first, 1.06 ± 0.035 for the second.

TTCACGGGTT and TTCACGGTCG are within error of each other in switch fluorescence ratio: 1.01 ± 0.021 for the first, 1.03 ± 0.024 for the second.

TTCACTATTT and TTCAGCTTTT are within error of each other in switch fluorescence ratio: 1.02 ± 0.028 for the first, 0.984 ± 0.037 for the second.

TTCAGGATA and TTCAGGGGGG are within error of each other in switch fluorescence ratio: 1.01 ± 0.033 for the first, 1.02 ± 0.033 for the second.

TTCAGGGTCC and TTCAGTGGTG are within error of each other in switch fluorescence ratio: 1.03 ± 0.035 for the first, 0.965 ± 0.053 for the second.

First: TTCAGTGTTA
Second: TTCAGTTCGA
The switch fluorescence ratio of the first is higher: 1.017 ± 0.0058 for the first, 0.9971 ± 0.0057 for the second.

TTCAGTTGGT and TTCATAGCTT are within error of each other in switch fluorescence ratio: 0.987 ± 0.017 for the first, 1.02 ± 0.043 for the second.

First: TTCATATGCG
Second: TTCATATTAT
The switch fluorescence ratio of the first is higher: 0.995 ± 0.016 for the first, 0.9472 ± 0.0062 for the second.

Going from TTCATATTGT to TTCATCCGTA, the switch fluorescence ratio rises from 0.955 ± 0.024 to 1.39 ± 0.23.

TTCATCGTCT and TTCATGCCTG are within error of each other in switch fluorescence ratio: 1.01 ± 0.042 for the first, 1.12 ± 0.092 for the second.

TTCATGGGAG and TTCATGGGG are within error of each other in switch fluorescence ratio: 0.99 ± 0.022 for the first, 0.9879 ± 0.0094 for the second.

First: TTCATGTGTT
Second: TTCATTCATG
The switch fluorescence ratio of the first is higher: 1.04 ± 0.037 for the first, 0.97 ± 0.0033 for the second.

TTCATTGTTT and TTCATTTTTT are within error of each other in switch fluorescence ratio: 1.01 ± 0.02 for the first, 1.02 ± 0.041 for the second.

TTCCAAGACA and TTCCAATAAG are the same in switch fluorescence ratio: 1.01 ± 0.026 for the first, 1.01 ± 0.02 for the second.

TTCCAATAGG and TTCCACGTAT are within error of each other in switch fluorescence ratio: 1.13 ± 0.21 for the first, 1.18 ± 0.046 for the second.

TTCCACGTTT and TTCCAGGGCA are within error of each other in switch fluorescence ratio: 1.11 ± 0.12 for the first, 1.02 ± 0.022 for the second.

TTCCAGTTT and TTCCATAGGG are within error of each other in switch fluorescence ratio: 1 ± 0.04 for the first, 0.987 ± 0.022 for the second.

TTCCATCACA and TTCCCATGGG are within error of each other in switch fluorescence ratio: 1.01 ± 0.021 for the first, 1.02 ± 0.027 for the second.

TTCCCGGGTG and TTCCCTTATG are within error of each other in switch fluorescence ratio: 1.53 ± 0.55 for the first, 0.976 ± 0.017 for the second.

TTCCCTTTTG and TTCCGAAAAT are within error of each other in switch fluorescence ratio: 1.02 ± 0.0057 for the first, 1.01 ± 0.046 for the second.

First: TTCCGAGTTT
Second: TTCCGCACGT
The switch fluorescence ratio of the first is lower: 1.15 ± 0.19 for the first, 2.64 ± 1.3 for the second.

TTCCGGAGAT and TTCCGGCTCT are within error of each other in switch fluorescence ratio: 1.43 ± 0.34 for the first, 1.61 ± 0.8 for the second.

TTCCGGGGGG and TTCCGGGGTA are the same in switch fluorescence ratio: 1.02 ± 0.054 for the first, 1.02 ± 0.032 for the second.

TTCCGTTTTA and TTCCTCCTTC are within error of each other in switch fluorescence ratio: 1.15 ± 0.17 for the first, 1.83 ± 0.89 for the second.

First: TTCCTCGTTA
Second: TTCCTGATGC
The switch fluorescence ratio of the first is higher: 1.39 ± 0.029 for the first, 1.04 ± 0.092 for the second.

Compared with TTCCTGTCGT, TTCCTTATTA is higher in switch fluorescence ratio: 1.004 ± 0.0021 for the first, 1.02 ± 0.011 for the second.

TTCGAAAAAG and TTCGAAGGGT are within error of each other in switch fluorescence ratio: 0.9961 ± 0.008 for the first, 1.09 ± 0.1 for the second.

TTCGAATGTG and TTCGAATTGT are within error of each other in switch fluorescence ratio: 1.01 ± 0.028 for the first, 0.976 ± 0.037 for the second.

TTCGATAGCA and TTCGCGGCTA are within error of each other in switch fluorescence ratio: 1.06 ± 0.058 for the first, 1.07 ± 0.016 for the second.

TTCGCGTTTT and TTCGGACGT are the same in switch fluorescence ratio: 1.02 ± 0.04 for the first, 1.02 ± 0.013 for the second.

TTCGGAGAAT and TTCGGATGAG are within error of each other in switch fluorescence ratio: 1.16 ± 0.23 for the first, 0.977 ± 0.041 for the second.

TTCGGATGGG and TTCGGCCACG are within error of each other in switch fluorescence ratio: 1 ± 0.034 for the first, 1.01 ± 0.036 for the second.

TTCGGGAACT and TTCGGGAGTG are within error of each other in switch fluorescence ratio: 1 ± 0.038 for the first, 0.985 ± 0.02 for the second.

TTCGGGATGA and TTCGGGCGGA are within error of each other in switch fluorescence ratio: 1 ± 0.056 for the first, 0.98 ± 0.011 for the second.

TTCGGGGCAT and TTCGGGGCCA are within error of each other in switch fluorescence ratio: 1.05 ± 0.097 for the first, 0.991 ± 0.013 for the second.

TTCGGGGGT and TTCGGGGGTG are within error of each other in switch fluorescence ratio: 0.983 ± 0.024 for the first, 1.01 ± 0.031 for the second.

TTCGGGTCCG and TTCGGGTTAA are within error of each other in switch fluorescence ratio: 0.988 ± 0.067 for the first, 1.05 ± 0.017 for the second.

TTCGGTAGTG and TTCGGTCCGT are within error of each other in switch fluorescence ratio: 0.9923 ± 0.0083 for the first, 0.981 ± 0.026 for the second.

TTCGGTCGTA and TTCGGTGGGA are within error of each other in switch fluorescence ratio: 1.01 ± 0.053 for the first, 1.07 ± 0.02 for the second.

Going from TTCGGTTAGA to TTCGGTTGGA, the switch fluorescence ratio falls from 1.02 ± 0.015 to 0.984 ± 0.017.

TTCGTAACGC and TTCGTAATGT are within error of each other in switch fluorescence ratio: 1.03 ± 0.038 for the first, 1.036 ± 0.0083 for the second.

Compared with TTCGTAGCAG, TTCGTCATGG is lower in switch fluorescence ratio: 1.23 ± 0.063 for the first, 1.027 ± 0.0075 for the second.

Going from TTCGTCGGGC to TTCGTGACCT, the switch fluorescence ratio rises from 0.9863 ± 0.0071 to 1.1 ± 0.094.

TTCGTGGTTT and TTCGTTACAG are within error of each other in switch fluorescence ratio: 1.032 ± 0.0055 for the first, 0.998 ± 0.027 for the second.

Going from TTCGTTGAAT to TTCGTTTAAT, the switch fluorescence ratio rises from 0.97 ± 0.024 to 0.9989 ± 0.0017.

TTCGTTTACA and TTCGTTTGCT are within error of each other in switch fluorescence ratio: 1.01 ± 0.028 for the first, 0.955 ± 0.035 for the second.

TTCGTTTTGT and TTCGTTTTTT are within error of each other in switch fluorescence ratio: 0.9975 ± 0.0097 for the first, 0.985 ± 0.047 for the second.

TTCTAAAGAT and TTCTAAAGGT are within error of each other in switch fluorescence ratio: 0.969 ± 0.034 for the first, 1.02 ± 0.04 for the second.
